According to paper PMC6224509 (2018):

What was measured:
Experiment in all cases: SPR; 37°C
[1] = biological target: human 4-1BB residues 24–186, wild type, His–Avi (human, UniProt Q07011 24-186)
[2] = biological target: human 4-1BB residues 24–186 I132R, His–Avi (human, UniProt Q07011 24-186, I132R)
[3] = biological target: human 4-1BB residues 24–186 M101R, His–Avi (human, UniProt Q07011 24-186, M101R)
human 4-1BB residues 24–186 M101R, His–Avi, sequence (Q07011 24-186 M101R): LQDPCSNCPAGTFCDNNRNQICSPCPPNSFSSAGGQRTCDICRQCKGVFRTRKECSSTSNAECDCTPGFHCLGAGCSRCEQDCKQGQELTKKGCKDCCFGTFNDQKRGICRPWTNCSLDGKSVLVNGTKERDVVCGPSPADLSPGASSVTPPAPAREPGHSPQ

human 4-1BB residues 24–186, wild type, His–Avi, sequence (Q07011 24-186): as the sequence (Q07011 24-186 M101R) above, with R78M counted along it
human 4-1BB residues 24–186 I132R, His–Avi, sequence (Q07011 24-186 I132R): as the sequence (Q07011 24-186 M101R) above, with R78M, I109R counted along it

B1: urelumab (fully human IgG4 mAb) (antibody, V domains shown)
VH: QVQLQQWGAGLLKPSETLSLTCAVYGGSFSGYYWSWIRQSPEKGLEWIGEINHGGYVTYNPSLESRVTISVDTSKNQFSLKLSSVTAADTAVYYCARDYGPGNYDWYFDLWGRGTLVTVSS
VL: EIVLTQSPATLSLSPGERATLSCRASQSVSSYLAWYQQKPGQAPRLLIYDASNRATGIPARFSGSGSGTDFTLTISSLEPEDFAVYYCQQRSNWPPALTFGGGTKVEIK
koff [1]: 0.014 s⁻¹
koff [2]: 0.012 s⁻¹
koff [3]: 0.0095 s⁻¹
